One series concerns the target T1, bPrP peptide 16 (bovine, UniProt P10279 108-119).
T1 chain: GQWNKPSKPKTN
The experiment in a line: microchip electrophoresis.

In a further series the target is T2, bPrP peptide 1 (bovine, UniProt P10279 25-36).
T2 chain: KKRPKPGGGWNT
The experiment in a line: microchip electrophoresis.

With GGAGGAGGAGGA (structured_RNA) [R12], the binding result with bPrP peptide 16 and in the series with bPrP peptide 1 was “binds” throughout.

These data come from article PMC2764455.
